These results are taken from doi:10.1101/2020.08.04.235895, “Analysis of Structure and function by the LysR-Type Transcriptional Regulator CbbR of Nostoc sp. PCC 7120”.

The target in series [1] is T1, CbbR_7120 (Nostoc sp. PCC 7120, UniProt Q8YQ82 1-337).
T1 sequence: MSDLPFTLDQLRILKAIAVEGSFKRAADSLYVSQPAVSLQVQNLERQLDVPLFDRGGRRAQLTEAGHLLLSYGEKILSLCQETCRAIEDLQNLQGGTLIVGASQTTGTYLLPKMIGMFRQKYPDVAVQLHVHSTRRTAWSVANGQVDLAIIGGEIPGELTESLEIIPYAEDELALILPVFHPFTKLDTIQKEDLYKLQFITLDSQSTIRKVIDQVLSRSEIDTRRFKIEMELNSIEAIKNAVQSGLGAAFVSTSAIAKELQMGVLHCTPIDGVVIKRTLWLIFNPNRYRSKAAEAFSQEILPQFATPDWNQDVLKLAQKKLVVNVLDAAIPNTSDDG
As to the kind of experiment: competition EMSA; competitor vs FAM-DNA; no significant change in free FAM-DNA; EMSA: 5X buffer 100 mM HEPES pH 7.6, 5 mM EDTA, 50 mM (NH4)2SO4, 5 mM DTT, 1% Tween 20, 150 mM KCl (2.5 uL per reaction, volume printed as 10 mL); 15 min on ice; 6% TBE-PAGE on ice. As to conditions: protein: recombinant; tags: N-terminal 6xHis; chain copies: 4; blunt. A general note: A gel shift assay detects complexes by their altered migration in electrophoresis.

The target in series [2] is T1, CbbR_7120. As to the kind of experiment: competition EMSA; competitor vs FAM-DNA; EMSA: 5X buffer 100 mM HEPES pH 7.6, 5 mM EDTA, 50 mM (NH4)2SO4, 5 mM DTT, 1% Tween 20, 150 mM KCl (2.5 uL per reaction, volume printed as 10 mL); 15 min on ice; 6% TBE-PAGE on ice. As to conditions: protein: recombinant; tags: N-terminal 6xHis; chain copies: 4; blunt.
Series [3] deals with T1, CbbR_7120. The series is described as above. The note with it: protein: recombinant; tags: N-terminal 6xHis; chain copies: 4; blunt. This is another data set of the same source.
For series [4], the target named is T1, CbbR_7120. The series is described as above. The note with it: protein: recombinant; tags: N-terminal 6xHis; chain copies: 4; blunt. This is another data set of the same source.
Series [5] has as its target T1, CbbR_7120. As to the kind of experiment: EMSA; EMSA: 5X buffer 100 mM HEPES pH 7.6, 5 mM EDTA, 50 mM (NH4)2SO4, 5 mM DTT, 1% Tween 20, 150 mM KCl (2.5 uL per reaction, volume printed as 10 mL); 15 min on ice; 6% TBE-PAGE on ice. The note with it: protein: recombinant; tags: N-terminal 6xHis; chain copies: 4; label: 5'-FAM on forward strand; blunt.

B1: BOX 2 (dsDNA)
DNA 1: AGTTAAGAACTTTCAAAGA
DNA 2: TCTTTGAAAGTTCTTAACT
On to B1, for which, in the series with CbbR_7120 [1], the binding result was “no binding”.

B2: BOX 1 (dsDNA)
DNA 1: TAATAACAAATTTAAATAT
DNA 2: ATATTTAAATTTGTTATTA
On to B2, for which the binding signal with CbbR_7120 [2] is ~400 competitor:FAM-DNA ratio for complete competition.

B3: BOX 3 (dsDNA)
DNA 1: TTATGCCATTTCTTGATAT
DNA 2: ATATCAAGAAATGGCATAA
On to B3, for which the binding signal with CbbR_7120 [3] was ~1000 competitor:FAM-DNA ratio for complete competition.

B4: BOX1OP1 (dsDNA)
DNA 1: TGTAATAACAAATTTAAATATGTCATATAACAAATTTAAATATGT
DNA 2: ACATATTTAAATTTGTTATATGACATATTTAAATTTGTTATTACA
B4: the binding signal with CbbR_7120 [4] was ~10 competitor:FAM-DNA ratio for complete competition.

B5: FAM-DNA (rbcLXS promoter probe) (dsDNA)
DNA 1: TAATAACAAATTTAAATATGTAAGTTAAGAACTTTCAAAGAATAACTTATGCCATTTCTTGATAT
DNA 2: ATATCAAGAAATGGCATAAGTTATTCTTTGAAAGTTCTTAACTTACATATTTAAATTTGTTATTA
Regarding B5, in the series with CbbR_7120 [5], the binding result is “binds”.
